B1: Ide85 (protein)
chain: MANQEIRYSEVTPYHVTSVWTKGVTPPAKFTQGEDVFHAPYVANQGWYDITKTFNGKDDLLCGAATAGNMLHWWFDQNKEKIEAYLKKHPDKQKIMFGDQELLDVRKVINTKGDQTNSELFNYFRDKAFPGLSARRIGVMPDLVLDMFINGYYLNVYKTQTTDVNRTYQEKDRRGGIFDAVFTRGDQSKLLTSRHDFKEKNLKEISDLIKKELTEGKALGLSHTYANVRINHVINLWGADFDSNGNLKAIYVTDSDSNASIGMKKYFVGVNSAGKVAISAKEIKEDNIGAQVLGLFTLSTGQDSWNQTN
B2: PRT-240 (protein)
chain: MEVVEVWPYGQNPNGKTEILSQTEDSESLQRLRDIEDFQAEKKMQNVVYTKWLDGVDVKDHDFRKIVDGDYAYYATPLLNGRGFYDINKDFNRDSDKCAAAVAANMFHYWLDINRDNVDRFLRQNPEKHGIIELPDGQLKLSDFLNTYESDHGYRDKSKLFDFISNAFNGPVWADKLLDNYINGYGYNKKYGRTIEDPTKNTSKFNFFKEVFNEKILTNNHQIRNQNEFSVLLSEALYTGKAIGLAYGPGGLRHSLGHIISVWGADLDADGNVVAIYVTDSDDKKLTIGDERVGLKRYKISTDDNNRLRLTTYEETHNTGAQIRGLETLDTGKYAWADYFDKTEQTGTDQAEQLEHHHHHH
B3: PRT-232 (protein)
chain: MEVVEVWPYGQNPNGKTEILSQTEDSESLQRLRDIEDFQAEKKMQNVVYTKWLDGVDVKDHDFRKIVDGNIAYYATPLLNGRGFYDINKDFNRDSDKCAAAVAANMFHYWLDINRDNVDRFLRQNPEKHGIIELPDGQLKLSDFLNTYESDHGYRDKSKLFDFISNNFNGPVWTDKLLDNYINGYAYNYKYGRTIEDPTKNTSKINFFKEVFNEKILTNNHSIRNQNEFSVLLSEALYTGKAIGLSYGPAGLRHSLGHIISVWGADLDADGNVVAIYVTDSDDKKLTIGDERVGLKRYKISTDDENRLRLTAYEETHNTGGQIRGLWTLDTGKEAWADYFDKTEQTGTDQAEQLEHHHHHH
B4: PRT-235 (protein)
chain: B3 chain with H317D, E334Y
B5: PRT-234 (protein)
chain: B3 chain with H152D, E334Y
B6: PRT-236 (protein)
chain: B3 chain with K59D, E334Y
B7: PRT-237 (protein)
chain: B3 chain with A72E, E334Y
B8: PRT-233 (protein)
chain: B3 chain with I113R, E334Y
B9: PRT-238 (protein)
chain: B3 chain with N70G, K97L, F163Y, A186G, E334Y
B10: IdeS (protein)
chain: ANQEIRYSEVTPYHVTSVWTKGVTPPANFTQGEDVFHAPYVANQGWYDITKTFNGKDDLLCGAATAGNMLHWWFDQNKDQIKRYLEEHPEKQKINFNGEQMFDVKEAIDTKNHQLDSKLFEYFKEKAFPYLSTKHLGVFPDHVIDMFINGYRLSLTNHGPTPVKEGSKDPRGGIFDAVFTRGDQSKLLTSRHDFKEKNLKEISDLIKKELTEGKALGLSHTYANVRINHVINLWGADFDSNGNLKAIYVTDSDSNASIGMKKYFVGVNSAGKVAISAKEIKEDNIGAQVLGLFTLSTGQDSWNQTN
B11: PRT-22 (protein)
chain: MANQEIRYSEVTPYHVTSVWTKGVTPPANFTQGEDVFHAPYVANQGWYDITKTFNGKDDLLCGAATAGNMLHWWFDQNKDQIERYLKEHPEKQKINFNGEQMFDVKEAIDTKNSQLDSKLFEYFKEKAFPYLSTKHLGVFPDHVIDMFINGYRLSLTNHGPTPVKEGSKDPRGGIFDAVFTRGDQSKLLTSRHDFKEKNLKEISDLIKKELTEGKALGLSHTYANVRINHVINLWGADFDSNGNLKAIYVTDSDSNASIGMKKYFVGVNSAGKVAISAKEIKEDNIGAQVLGLFTLSTGQDIWNQTN
B12: PRT-239 (protein)
chain: MEVVEVWPYGQNPNGKTEILSQTEDSESLQRLRDIEDFQAEKKMQNVVYTKWLDGVDVKDHDFRKIVDGGTAYYATPLLNGRGFYDINKDFNRDSLLCSAAVAANMFHYWLDINRDNVDRFLRQNPEKHGIIELPDGQLKLSDFLNTYESDHGYRDKSKLFDYISNNFNGGLWTDKLLDNYINGYGYNKKYGRTIEDPTKNTSKINFFKEVFNEKILTNNHQIRNQNEFSVLLSEALYTGKAIGLSYGPAGLRHSLGHIISVWGADLDADGNVVAIYVTDSDDKKLTIGDERVGLKRYKISTDDNNRLRLTAYEETHNTGGQIRGLWTLDTGKYAWADYFDKTEQTGTDQAEQLEHHHHHH

Consider twelve proteins from patent US20250027068.

Numbering of substitutions follows the chain as printed.

This series deals with pooled human IgG.
Consider B1, for which the Enzyme Activity Endpoint Assay (purified): Fab'2 stood at 1130 ng/µL, the Enzyme Activity Endpoint Assay (purified): Fc was 615 ng/µL, the Enzyme Activity Endpoint Assay (purified): IgG came to 0 ng/µL and the Enzyme Activity Endpoint Assay (purified): scIgG came to 0 ng/µL.

Protein B2 gave an Enzyme Activity Endpoint Assay (purified): Fab'2 of 0 ng/µL, an Enzyme Activity Endpoint Assay (purified): Fc of 82 ng/µL, an Enzyme Activity Endpoint Assay (purified): IgG of 1400 ng/µL and an Enzyme Activity Endpoint Assay (purified): scIgG of 36 ng/µL.

Consider B3, for which the Enzyme Activity Endpoint Assay (purified): Fab'2 worked out at 40 ng/µL, the Enzyme Activity Endpoint Assay (purified): Fc came to 283 ng/µL, the Enzyme Activity Endpoint Assay (purified): IgG worked out at 624 ng/µL and the Enzyme Activity Endpoint Assay (purified): scIgG turned out to be 393 ng/µL.

Take B4: the Enzyme Activity Endpoint Assay (purified): Fab'2 was determined as 116 ng/µL, the Enzyme Activity Endpoint Assay (purified): Fc was determined as 448 ng/µL, the Enzyme Activity Endpoint Assay (purified): IgG is 711 ng/µL and the Enzyme Activity Endpoint Assay (purified): scIgG came out at 483 ng/µL.

The protein B5 returned an Enzyme Activity Endpoint Assay (purified): Fab'2 of 88 ng/µL, an Enzyme Activity Endpoint Assay (purified): Fc of 376 ng/µL, an Enzyme Activity Endpoint Assay (purified): IgG of 640 ng/µL and an Enzyme Activity Endpoint Assay (purified): scIgG of 432 ng/µL.

In turn, B6 had an Enzyme Activity Endpoint Assay (purified): Fab'2 of 294 ng/µL, an Enzyme Activity Endpoint Assay (purified): Fc of 615 ng/µL, an Enzyme Activity Endpoint Assay (purified): IgG of 594 ng/µL and an Enzyme Activity Endpoint Assay (purified): scIgG of 472 ng/µL.

As to B7, the Enzyme Activity Endpoint Assay (purified): Fab'2 was 828 ng/µL, the Enzyme Activity Endpoint Assay (purified): Fc was 415 ng/µL, the Enzyme Activity Endpoint Assay (purified): IgG came out at 685 ng/µL and the Enzyme Activity Endpoint Assay (purified): scIgG stood at 461 ng/µL.

As for B8, the Enzyme Activity Endpoint Assay (purified): Fab'2 was found to be 94 ng/µL, the Enzyme Activity Endpoint Assay (purified): Fc stood at 376 ng/µL, the Enzyme Activity Endpoint Assay (purified): IgG was determined as 596 ng/µL and the Enzyme Activity Endpoint Assay (purified): scIgG is 415 ng/µL.

In the case of B9, the Enzyme Activity Endpoint Assay (purified): Fab'2 came out at 0 ng/µL, the Enzyme Activity Endpoint Assay (purified): Fc stood at 81 ng/µL, the Enzyme Activity Endpoint Assay (purified): IgG worked out at 1610 ng/µL and the Enzyme Activity Endpoint Assay (purified): scIgG worked out at 28 ng/µL.

In turn, B10 displayed an Enzyme Activity Endpoint Assay (purified): Fab'2 of 1360 ng/µL, an Enzyme Activity Endpoint Assay (purified): Fc of 524 ng/µL, an Enzyme Activity Endpoint Assay (purified): IgG of 0 ng/µL and an Enzyme Activity Endpoint Assay (purified): scIgG of 0 ng/µL.

B11 registered an Enzyme Activity Endpoint Assay: Fab′2 of 37 ng/µL, an Enzyme Activity Endpoint Assay: Fc of 116 ng/µL, an Enzyme Activity Endpoint Assay: IgG of 19 ng/µL and an Enzyme Activity Endpoint Assay: scIgG of 23 ng/µL.

B12 had an Enzyme Activity Endpoint Assay (purified): Fab'2 of 49 ng/µL, an Enzyme Activity Endpoint Assay (purified): Fc of 269 ng/µL, an Enzyme Activity Endpoint Assay (purified): IgG of 689 ng/µL and an Enzyme Activity Endpoint Assay (purified): scIgG of 360 ng/µL.
